Here are results for five molecules from article PMC10616141.

The target of this experiment is Orai1-CFP, Q96D31. Briefly: E-FRET in cells (Orai1-CFP / STIM1-YFP). The settings on record: chain shown with the change, HEK-S1S2dKO-O1CFP cells, store-depletion with 2.5 µM ionomycin, parent: est. 0.11, read off a plot.

Numbering of substitutions follows the chain as printed.

Sequence of Orai1-CFP, Q96D31 (Q96D31 whole entry): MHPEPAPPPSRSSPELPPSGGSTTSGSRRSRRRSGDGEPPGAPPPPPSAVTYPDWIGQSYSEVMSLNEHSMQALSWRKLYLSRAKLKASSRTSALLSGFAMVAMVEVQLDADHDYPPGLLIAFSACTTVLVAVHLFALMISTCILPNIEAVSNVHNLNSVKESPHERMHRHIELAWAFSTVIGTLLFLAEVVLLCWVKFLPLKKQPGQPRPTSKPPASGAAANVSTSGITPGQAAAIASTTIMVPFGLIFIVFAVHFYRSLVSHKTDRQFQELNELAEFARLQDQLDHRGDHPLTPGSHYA

B1: STIM1-YFP-WT, Q13586 F394del (protein)
chain: LSHSHSEKATGTSSGANSEESTAAEFCRIDKPLCHSEDEKLSFEAVRNIHKLMDDDANGDVDVEESDEFLREDLNYHDPTVKHSTFHGEDKLISVEDLWKAWKSSEVYNWTVDEVVQWLITYVELPQYEETFRKLQLSGHAMPRLAVTNTTMTGTVLKMTDRSHRQKLQLKALDTVLFGPPLLTRHNHLKDFMLVVSIVIGVGGCWFAYIQNRYSKEHMKKMMKDLEGLHRAEQSLHDLQERLHKAQEEHRTVEVEKVHLEKKLRDEINLAKQEAQRLKELREGTENERSRQKYAEEELEQVREALRKAEKELESHSSWYAPEALQKWLQLTHEVEVQYYNIKKQNAEKQLLVAKEGAEKIKKKRNTLFGTHVAHSSSLDDVDHKILTAKQALSEVTAALRERLHRWQQIEILCGFQIVNNPGIHSLVAALNIDPSWMGSTRPNPAHFIMTDDVDDMDEEIVSPLSMQSPSLQSSVRQRLTEPQHGLGSQRDLTHSDSESSLHMSDRQRVAPKPPQMSRAADEALNAMTSNGSHRLIEGVHPGSLVEKLPDSPALAKKALLALNHGLDKAHSLMELSPSAPPGGSPHLDSSRSHSPSSPDPDTPSPVGDSRALQASRNTRIPHLAGKKAVAEEDNGSIGEETDSSPGRKKFPLKIFKKPLKK
On to B1, for which, for the setting “n = 106 (WT n = 579)”, the response was found to be 0.003.

B2: STIM1-YFP-WT, Q13586 H398del (protein)
chain: B1 chain with H372F, V373H, A374V, H375A
As to B2, the response (n = 100 (WT n = 579)) is 0.07.

B3: STIM1-YFP-WT, Q13586 H395del (protein)
chain: B1 chain with H372F
On to B3, for which the response (n = 207 (WT n = 579)) worked out at 0.082.

B4: STIM1-YFP-WT, Q13586 H395del; V396del (protein)
chain: LSHSHSEKATGTSSGANSEESTAAEFCRIDKPLCHSEDEKLSFEAVRNIHKLMDDDANGDVDVEESDEFLREDLNYHDPTVKHSTFHGEDKLISVEDLWKAWKSSEVYNWTVDEVVQWLITYVELPQYEETFRKLQLSGHAMPRLAVTNTTMTGTVLKMTDRSHRQKLQLKALDTVLFGPPLLTRHNHLKDFMLVVSIVIGVGGCWFAYIQNRYSKEHMKKMMKDLEGLHRAEQSLHDLQERLHKAQEEHRTVEVEKVHLEKKLRDEINLAKQEAQRLKELREGTENERSRQKYAEEELEQVREALRKAEKELESHSSWYAPEALQKWLQLTHEVEVQYYNIKKQNAEKQLLVAKEGAEKIKKKRNTLFGTFAHSSSLDDVDHKILTAKQALSEVTAALRERLHRWQQIEILCGFQIVNNPGIHSLVAALNIDPSWMGSTRPNPAHFIMTDDVDDMDEEIVSPLSMQSPSLQSSVRQRLTEPQHGLGSQRDLTHSDSESSLHMSDRQRVAPKPPQMSRAADEALNAMTSNGSHRLIEGVHPGSLVEKLPDSPALAKKALLALNHGLDKAHSLMELSPSAPPGGSPHLDSSRSHSPSSPDPDTPSPVGDSRALQASRNTRIPHLAGKKAVAEEDNGSIGEETDSSPGRKKFPLKIFKKPLKK
In the case of B4, for the setting “n = 87 (WT n = 579)”, the response was 0.074.

B5: STIM1-YFP-WT, Q13586 V396del; A397del (protein)
chain: B4 chain with A373H
With B5, under “n = 107 (WT n = 579)”, the response came to 0.034.
